In patent US20060070134:

Target: Human E1 (ubiquitin-activating enzyme) (UniProt P22314)
Chain of UniProt P22314 (P22314 whole entry): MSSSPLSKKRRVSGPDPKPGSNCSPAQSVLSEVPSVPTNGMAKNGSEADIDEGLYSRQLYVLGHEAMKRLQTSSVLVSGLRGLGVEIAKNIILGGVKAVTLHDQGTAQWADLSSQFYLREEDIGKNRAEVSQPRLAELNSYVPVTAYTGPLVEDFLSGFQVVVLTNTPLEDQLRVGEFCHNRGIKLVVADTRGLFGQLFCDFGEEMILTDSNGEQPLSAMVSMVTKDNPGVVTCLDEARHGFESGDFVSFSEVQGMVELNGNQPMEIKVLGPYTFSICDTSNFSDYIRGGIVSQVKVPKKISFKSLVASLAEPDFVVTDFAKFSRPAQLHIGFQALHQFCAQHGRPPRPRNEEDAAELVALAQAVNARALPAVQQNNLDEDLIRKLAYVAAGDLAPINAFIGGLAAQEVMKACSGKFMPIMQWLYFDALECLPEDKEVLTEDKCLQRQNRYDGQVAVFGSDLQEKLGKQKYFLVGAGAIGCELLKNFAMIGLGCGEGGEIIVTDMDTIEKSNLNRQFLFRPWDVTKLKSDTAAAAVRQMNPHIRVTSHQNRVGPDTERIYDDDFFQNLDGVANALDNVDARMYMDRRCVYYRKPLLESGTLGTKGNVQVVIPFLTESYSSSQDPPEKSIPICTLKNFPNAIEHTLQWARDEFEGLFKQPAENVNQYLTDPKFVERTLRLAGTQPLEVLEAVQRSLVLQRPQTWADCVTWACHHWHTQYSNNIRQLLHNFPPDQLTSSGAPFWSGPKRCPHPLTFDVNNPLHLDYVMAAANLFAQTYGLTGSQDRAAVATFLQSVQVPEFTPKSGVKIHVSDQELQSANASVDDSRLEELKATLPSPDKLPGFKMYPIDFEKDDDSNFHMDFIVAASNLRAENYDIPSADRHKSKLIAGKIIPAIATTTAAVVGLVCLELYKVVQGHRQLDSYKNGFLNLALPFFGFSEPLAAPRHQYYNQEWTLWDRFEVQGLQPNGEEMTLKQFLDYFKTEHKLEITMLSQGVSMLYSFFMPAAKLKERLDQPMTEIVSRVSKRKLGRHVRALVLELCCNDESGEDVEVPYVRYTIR

## FLJ11011v2
  ubiquitinylation reaction, anti-Ub western blot: FLJ11011v2 is efficiently ubiquitinylated in this assay
